Laboratory results from US6495144.

Tests used:
CBF1/RBPJk [1] = biological target: CBF1/RBPJk (UniProt Q06330); test: cell-based or functional assay
GAL4-CBF1 (KLV249AAA) = GAL4-CBF1 (KLV249AAA) (UniProt P04386); test: cell-based or functional assay
CBF1/RBPJk [2] = biological target: CBF1/RBPJk (UniProt Q06330); test: EMSA supershift with heparin-agarose purified CBF1 and Cp CBF1 site probe; phosphoimager, relative to wild-type EBNA2(252-425)
[3] = system: CBF1 + EBNA2 del252-366 del252-366 (Homo sapiens / Epstein-Barr virus); test: EMSA; conditions: no supershifted complex
[4] = system: CBF1 + EBNA2 del376-425 del376-425 (Homo sapiens / Epstein-Barr virus); test: EMSA; conditions: supershifted complex relative to wild-type
[5] = system: CBF1 + EBNA2 SR360VD (PKC) SR360VD (Homo sapiens / Epstein-Barr virus); test: EMSA; conditions: supershifted complex relative to wild-type
[6] = system: CBF1 + EBNA2 del343-425 del343-425 (Homo sapiens / Epstein-Barr virus); test: EMSA; conditions: no stable supershifted complex; partially competed CBF1 complex
[7] = system: CBF1 + EBNA2 GP320SR (CR6) GP320SR (Homo sapiens / Epstein-Barr virus); test: EMSA; conditions: supershifted complex relative to wild-type
[8] = system: CBF1 + type A EBNA2 252-425 complex (Homo sapiens / Epstein-Barr virus); test: EMSA; conditions: supershifted EBNA2/CBF1 complex, reference; EBNA2 tethered through CBF1
[9] = system: CBF1 + EBNA2 LGL389SRT (CR7) LGL389SRT (Homo sapiens / Epstein-Barr virus); test: EMSA; conditions: supershifted complex relative to wild-type
[10] = system: CBF1 + EBNA2 PI326SR (CR6) PI326SR (Homo sapiens / Epstein-Barr virus); test: EMSA; conditions: supershifted complex relative to wild-type
[11] = system: CBF1 + EBNA2 del344-357 del344-357 (Homo sapiens / Epstein-Barr virus); test: EMSA; conditions: supershifted complex relative to wild-type
[12] = system: CBF1 + EBNA2 II307SR (CR5) II307SR (Homo sapiens / Epstein-Barr virus); test: EMSA; conditions: supershifted complex relative to wild-type
[13] = system: CBF1 + EBNA2 WW323SR (CR6) WW323SR (Homo sapiens / Epstein-Barr virus); test: EMSA; conditions: no supershifted complex
[14] = system: CBF1 + EBNA2 del252-309,398-425 del252-309,del398-425 (Homo sapiens / Epstein-Barr virus); test: EMSA; conditions: no supershifted complex
GAL4CBF1 (EEF233AAA) = GAL4CBF1 (EEF233AAA) (UniProt P04386); test: cell-based or functional assay
GAL4-CBF1 (wild-type) = GAL4-CBF1 (wild-type) (UniProt P04386); test: cell-based or functional assay

Sequence of CBF1/RBPJk (Q06330 whole entry, the tested form may be a part): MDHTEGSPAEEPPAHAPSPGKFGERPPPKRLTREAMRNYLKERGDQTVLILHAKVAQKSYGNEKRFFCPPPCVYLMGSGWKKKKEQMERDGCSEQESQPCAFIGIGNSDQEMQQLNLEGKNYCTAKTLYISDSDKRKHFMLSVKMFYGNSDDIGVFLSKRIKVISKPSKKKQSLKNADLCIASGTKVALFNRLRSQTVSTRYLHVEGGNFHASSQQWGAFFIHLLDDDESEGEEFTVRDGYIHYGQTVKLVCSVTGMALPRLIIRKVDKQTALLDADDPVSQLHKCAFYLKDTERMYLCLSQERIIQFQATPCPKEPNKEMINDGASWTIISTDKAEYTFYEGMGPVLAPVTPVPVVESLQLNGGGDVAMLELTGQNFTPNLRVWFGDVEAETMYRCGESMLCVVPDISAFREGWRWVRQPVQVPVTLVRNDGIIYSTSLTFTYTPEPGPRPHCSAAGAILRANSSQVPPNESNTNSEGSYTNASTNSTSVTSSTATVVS

Substance: wild-type EBNA2 (full-length, type A) (from UniProt P12978 1-487)
- % Transactivation (CBF1/RBPJk [1]): 100%

Substance: full-length EBNA2 GP320SR (CR6) (from UniProt P12978 1-487)
- % Transactivation (CBF1/RBPJk [1]): 120%

Substance: EBNA2 (effector of Table 2) (from UniProt P12978 1-487)
- Relative CAT Activity (relative to CAT reporter alone) (GAL4-CBF1 (KLV249AAA)): 21

Substance: full-length EBNA2 WW323SR (CR6) (from UniProt P12978 1-487)
- % Transactivation (CBF1/RBPJk [1]): 0%

Substance: full-length EBNA2 del344-357 (from UniProt P12978 1-487)
- % Transactivation (CBF1/RBPJk [1]): 150%

Substance: EBNA2 252-425 del376-425 (from UniProt P12978 252-375)
- % Complex formation (CBF1/RBPJk [2]): 10%

Substance: full-length EBNA2 LGL389SRT (CR7) (from UniProt P12978 1-487)
- % Transactivation (CBF1/RBPJk [1]): 100%

Substance: full-length EBNA2 II307SR (CR5) (from UniProt P12978 1-487)
- % Transactivation (CBF1/RBPJk [1]): 20%

Substance: Cp CBF1 binding site 30-bp probe
- binding signal [3]: < 1%
- binding signal [4]: 10%
- binding signal [5]: 60%
- binding signal [6]: < 1%
- binding signal [7]: 90%
- binding signal [8]: 100%
- binding signal [9]: 50%
- binding signal [10]: 5%
- binding signal [11]: 100%
- binding signal [12]: 20%
- binding signal [13]: < 1%
- binding signal [14]: < 1%

Substance: Notch2IC (from UniProt Q9QW30 1789-2471) (receptor)
- Relative CAT Activity (relative to CAT reporter alone) (GAL4CBF1 (EEF233AAA)): 4.5
- Relative CAT Activity (relative to CAT reporter alone) (GAL4-CBF1 (wild-type)): 5.7
- Relative CAT Activity (relative to CAT reporter alone) (GAL4-CBF1 (KLV249AAA)): 1.3

Substance: EBNA2 252-425 del252-366 (from UniProt P12978 367-425)
- % Complex formation (CBF1/RBPJk [2]): < 1%

Substance: Notch1IC (from UniProt Q01705 1751-2531) (receptor)
- Relative CAT Activity (relative to CAT reporter alone) (GAL4CBF1 (EEF233AAA)): 4.2
- Relative CAT Activity (relative to CAT reporter alone) (GAL4-CBF1 (wild-type)): 4.9
- Relative CAT Activity (relative to CAT reporter alone) (GAL4-CBF1 (KLV249AAA)): 1.3

Substance: full-length EBNA2 SR360VD (PKC) (from UniProt P12978 1-487)
- % Transactivation (CBF1/RBPJk [1]): 110%

Substance: full-length EBNA2 PI326SR (CR6) (from UniProt P12978 1-487)
- % Transactivation (CBF1/RBPJk [1]): 2%
- transactivation at the highest levels of effector DNA (Cp-CAT, DG75 cells) (CBF1/RBPJk [1]): 20%

Substance: EBNA2 252-425 del252-309,398-425 (from UniProt P12978 310-397)
- % Complex formation (CBF1/RBPJk [2]): < 1%

Substance: EBNA2 252-425 del344-357 (from UniProt P12978 252-343; P12978 358-425)
- % Complex formation (CBF1/RBPJk [2]): 100%

Substance: EBNA2 252-425 II307SR (CR5) (from UniProt P12978 252-425)
- % Complex formation (CBF1/RBPJk [2]): 20%

Substance: EBNA2 252-425 del343-425 (from UniProt P12978 252-342)
- % Complex formation (CBF1/RBPJk [2]): < 1%
